Source: patent US20210388102A1 (IMMUNOGEN, published 2021)

T1: His-tagged soluble human ADAM9 (shADAM9-His) (human, UniProt Q13443 206-697)
T1 construct: Contains an extracellular portion of human ADAM9; also called huADAM9-His; His peptide-tagged soluble huADAM9
T1 sequence: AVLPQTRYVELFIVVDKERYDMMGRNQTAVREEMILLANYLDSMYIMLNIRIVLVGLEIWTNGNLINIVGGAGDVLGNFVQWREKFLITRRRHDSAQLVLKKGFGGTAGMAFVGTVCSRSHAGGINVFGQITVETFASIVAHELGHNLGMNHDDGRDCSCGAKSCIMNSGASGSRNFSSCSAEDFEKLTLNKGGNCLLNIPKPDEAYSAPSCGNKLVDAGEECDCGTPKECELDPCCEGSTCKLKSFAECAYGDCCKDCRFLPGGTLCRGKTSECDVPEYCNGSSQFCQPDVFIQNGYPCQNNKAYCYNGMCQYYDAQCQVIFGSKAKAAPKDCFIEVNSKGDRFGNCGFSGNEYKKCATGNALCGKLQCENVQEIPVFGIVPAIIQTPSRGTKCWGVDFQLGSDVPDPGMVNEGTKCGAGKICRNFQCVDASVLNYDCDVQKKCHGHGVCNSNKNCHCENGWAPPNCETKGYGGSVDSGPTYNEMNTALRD

T2: cynomolgus monkey ADAM9 (cynoADAM9) on cells (cynomolgus monkey, UniProt Q13443 206-819 (human entry))
T2 construct: also called Cho-K/cynoADAM9 clone 2; Cho-K/cynoADAM9 clone #16
T2 chain: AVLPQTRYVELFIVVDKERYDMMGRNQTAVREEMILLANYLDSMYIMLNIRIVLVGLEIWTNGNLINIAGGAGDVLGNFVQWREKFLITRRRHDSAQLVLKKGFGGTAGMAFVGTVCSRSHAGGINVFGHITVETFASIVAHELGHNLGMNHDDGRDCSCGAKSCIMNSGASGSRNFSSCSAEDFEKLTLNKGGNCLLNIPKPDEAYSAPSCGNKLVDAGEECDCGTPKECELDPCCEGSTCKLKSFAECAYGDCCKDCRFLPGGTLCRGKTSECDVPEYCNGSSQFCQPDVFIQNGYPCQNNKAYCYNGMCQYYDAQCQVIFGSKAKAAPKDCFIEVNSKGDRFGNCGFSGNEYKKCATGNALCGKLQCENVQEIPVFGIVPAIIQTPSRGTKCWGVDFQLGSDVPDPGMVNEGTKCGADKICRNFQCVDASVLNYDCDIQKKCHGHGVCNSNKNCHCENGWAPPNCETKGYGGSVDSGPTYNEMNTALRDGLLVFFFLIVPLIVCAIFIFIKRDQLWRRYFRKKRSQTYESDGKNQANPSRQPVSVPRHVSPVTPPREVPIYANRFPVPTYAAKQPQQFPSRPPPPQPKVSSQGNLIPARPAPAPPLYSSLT

T3: human ADAM9 (huADAM9) on cells (human, UniProt Q13443 206-819)
T3 construct: The pro-domain is said to be cleaved (Arg-205/Ala-206) in the mature protein; also called Cho-K/huADAM9; Cho-K/hu ADAM9.2
T3 sequence: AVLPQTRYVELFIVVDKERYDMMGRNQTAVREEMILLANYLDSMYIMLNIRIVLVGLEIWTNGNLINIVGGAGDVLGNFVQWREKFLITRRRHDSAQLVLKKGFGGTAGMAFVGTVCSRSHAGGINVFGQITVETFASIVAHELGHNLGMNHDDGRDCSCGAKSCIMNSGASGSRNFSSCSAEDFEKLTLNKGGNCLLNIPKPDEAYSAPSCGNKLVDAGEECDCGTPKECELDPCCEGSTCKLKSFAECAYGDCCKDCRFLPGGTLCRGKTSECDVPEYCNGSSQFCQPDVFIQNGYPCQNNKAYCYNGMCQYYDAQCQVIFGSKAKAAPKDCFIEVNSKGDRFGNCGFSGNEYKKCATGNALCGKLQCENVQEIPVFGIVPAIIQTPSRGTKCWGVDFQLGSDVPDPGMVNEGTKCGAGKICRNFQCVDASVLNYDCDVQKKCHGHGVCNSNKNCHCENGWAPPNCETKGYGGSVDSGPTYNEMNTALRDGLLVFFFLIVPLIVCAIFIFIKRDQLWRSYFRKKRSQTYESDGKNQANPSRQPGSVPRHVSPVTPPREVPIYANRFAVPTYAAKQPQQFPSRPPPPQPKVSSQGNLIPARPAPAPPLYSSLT

B1: hMAB-A (2I.2) (antibody, human IgG1, kappa)
heavy: not shown
light: DIVMTQSPDSLAVSLGERATISCKASQSVDYSGDSYMNWYQQKPGQPPKLLIYAASDLESGIPARFSGSGSGTDFTLTISSLEPEDFATYYCQQSHEDPFTFGQGTKLEIKRTVAAPSVFIFPPSDEQLKSGTASVVCLLNNFYPREAKVQWKVDNALQSGNSQESVTEQDSKDSTYSLSSTLTLSKADYEKHKVYACEVTHQGLSSPVTKSFNRGEC
notes: Kappa light chain, wild-type IgG1 heavy chain constant regions; also called MAB-A VH(2I); MAB-A VH(2I.2)
B2: hMAB-A(2I.2)-YTE (antibody, human IgG1, kappa)
heavy: EVQLVESGGGLVKPGGSLRLSCAASGFTFSSYWMHWVRQAPGKGLEWVGEIIPIFGHTNYNEKFKSRFTISLDNSKNTLYLQMGSLRAEDTAVYYCARGGYYYYPRQGFLDYWGQGTTVTVSSASTKGPSVFPLAPSSKSTSGGTAALGCLVKDYFPEPVTVSWNSGALTSGVHTFPAVLQSSGLYSLSSVVTVPSSSLGTQTYICNVNHKPSNTKVDKRVEPKSCDKTHTCPPCPAPELLGGPSVFLFPPKPKDTLYITREPEVTCVVVDVSHEDPEVKFNWYVDGVEVHNAKTKPREEQYNSTYRVVSVLTVLHQDWLNGKEYKCKVSNKALPAPIEKTISKAKGQPREPQVYTLPPSREEMTKNQVSLTCLVKGFYPSDIAVEWESNGQPENNYKTTPPVLDSDGSFFLYSKLTVDKSRWQQGNVFSCSVMHEALHNHYTQKSLSLSPGK
light: DIVMTQSPDSLAVSLGERATISCKASQSVDYSGDSYMNWYQQKPGQPPKLLIYAASDLESGIPARFSGSGSGTDFTLTISSLEPEDFATYYCQQSHEDPFTFGQGTKLEIKRTVAAPSVFIFPPSDEQLKSGTASVVCLLNNFYPREAKVQWKVDNALQSGNSQESVTEQDSKDSTYSLSSTLTLSKADYEKHKVYACEVTHQGLSSPVTKSFNRGEC
notes: Last residue X is lysine or absent; also called hMAB-A(2I.2) with the YTE mutation (M252Y, S254T, T256E)
B3: hMAB-A (2.2) (antibody, human IgG1, kappa, V domains shown)
VH: EVQLVESGGGLVKPGGSLRLSCAASGFTFSSYWMHWVRQAPGKGLEWVGEIIPIFGHTNYNEKFKSRFTISLDNSKNTLYLQMGSLRAEDTAVYYCARGGYYYYGSRDYFDYWGQGTTVTVSS
VL: DIVMTQSPDSLAVSLGERATISCKASQSVDYSGDSYMNWYQQKPGQPPKLLIYAASDLESGIPARFSGSGSGTDFTLTISSLEPEDFATYYCQQSHEDPFTFGQGTKLEIKR
notes: IgG1 kappa; also called huMAB-A(2.2); parental hMAB-A (2.2)

Key:
[1] = biological target: T4, huFcRn (human, UniProt P55899 24-297; P61769 21-119, limits assumed); test: SPR at pH 6.0: 250 nM and 1000 nM huFcRn passed over captured antibody
T4 construct: source and construct are not described; also called human FcRn
T4 sequence (P55899 24-297 limits assumed, chain 1 of 2): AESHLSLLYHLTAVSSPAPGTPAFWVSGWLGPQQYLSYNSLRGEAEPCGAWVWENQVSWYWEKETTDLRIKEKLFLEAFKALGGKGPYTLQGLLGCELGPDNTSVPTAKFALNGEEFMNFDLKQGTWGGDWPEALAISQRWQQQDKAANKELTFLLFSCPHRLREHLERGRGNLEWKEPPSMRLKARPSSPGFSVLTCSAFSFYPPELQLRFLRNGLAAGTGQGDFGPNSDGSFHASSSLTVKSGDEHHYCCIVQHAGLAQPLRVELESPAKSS
T4 sequence (P61769 21-119 limits assumed, chain 2 of 2): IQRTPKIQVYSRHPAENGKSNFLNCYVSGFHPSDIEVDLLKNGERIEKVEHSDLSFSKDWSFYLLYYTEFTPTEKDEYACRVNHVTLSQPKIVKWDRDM

[2] = biological target: T1, His-tagged soluble human ADAM9 …; test: SPR (BIACORE), antibody captured, huADAM9-His in flow
[3] = biological target: T2, cynomolgus monkey ADAM9 (cynoADAM9) on …; test: FACS, 300-19 cells expressing cynomolgus ADAM9
[4] = biological target: T3, human ADAM9 (huADAM9) on cells; test: FACS, 300-19 cells expressing human ADAM9
[5] = biological target: T1, His-tagged soluble human ADAM9 …; test: ELISA: His-tagged soluble huADAM9 (0.5 µg/mL) captured by plate-coated anti-His antibody; serial dilutions of antibody about 0.2-500 ng/mL; abs @450nm
[6] = biological target: T2, cynomolgus monkey ADAM9 (cynoADAM9) on …; test: FACS, EC50 on 300-19 cynoADAM9 cells over EC50 on 300-19 huADAM9 cells
[7] = biological target: T5, cyno FcRn (cynomolgus monkey, UniProt Q8SPV9 24-297; Q8SPW0 21-119, limits assumed); test: FcRn binding, method not described
T5 construct: source and construct are not described
T5 sequence (Q8SPV9 24-297 limits assumed, chain 1 of 2): as the sequence (P55899 24-297 limits assumed, chain 1 of 2) above, with N39D, E44Q, G99S, S189G, S190N, L217M, S269T counted along it
T5 sequence (Q8SPW0 21-119 limits assumed, chain 2 of 2): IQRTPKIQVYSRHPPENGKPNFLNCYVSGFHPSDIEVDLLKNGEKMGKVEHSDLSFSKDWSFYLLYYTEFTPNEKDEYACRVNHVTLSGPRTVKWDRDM

[8] = biological target: T4, huFcRn; test: SPR at pH 6.0: 25 nM and 100 nM antibody passed over immobilized FcRn (species of the FcRn not named in the legend); bivalent analyte
[9] = biological target: T2, cynomolgus monkey ADAM9 (cynoADAM9) on …; test: FACS, 300-19 cells expressing cynomolgus ADAM9; FACS, 300-19 cells expressing cynoADAM9, dilution series, 4° C.
[10] = biological target: T1, His-tagged soluble human ADAM9 …; test: SPR (BIACORE), antibody captured on anti-human Fc, shADAM9-His 6.25-100 nM, 1:1 Langmuir
[11] = biological target: T2, cynomolgus monkey ADAM9 (cynoADAM9) on …; test: FACS, EC50 on 300-19 cynoADAM9 cells over EC50 on 300-19 huADAM9 cells; Unitless ratio of cyno EC50 to human EC50 by FACS on 300-19 cells

Binder | Kd [1] [nM] | Kd [2] [nM] | koff [2] [s⁻¹] | kon [2] [M⁻¹ s⁻¹] | EC50 [3] [nM] | EC50 [4] [nM] | EC50 (read off the curve) [5] [ng/mL] | cyno/human (ratio of EC50) [6] | binding result [7] | Kd [8] [nM] | EC50 [9] [nM] | Kd [10] [nM] | cyno/human (ratio of EC50) [11]
B1 | 3400 | 0.4 | 0.00023 | 660000 | 4.1 | 1.49 | ~9 | 3 |  |  |  |  | 
B2 | 730 |  |  |  |  |  |  |  | binds | 7.2 |  |  | 
B3 |  | 0.6 | 0.00055 | 900000 |  | 0.69 |  |  |  |  | 32.7 | 1.4 | 47
